Test results: paper PMC5496025, “Abstracts from the 10th C1-inhibitor deficiency workshop” (Allergy, Asthma, and Clinical Immunology : Official Journal …, 2017)

B1: commercial plasma-derived C1-INH, further purified by ion-exchange chromatography (natural protein, UniProt P05155 23-500, looked up)
chain: NPNATSSSSQDPESLQDRGEGKVATTVISKMLFVEPILEVSSLPTTNSTTNSATKITANTTDEPTTQPTTEPTTQPTIQPTQPTTQLPTDSPTQPTTGSFCPGPVTLCSDLESHSTEAVLGDALVDFSLKLYHAFSAMKKVETNMAFSPFSIASLLTQVLLGAGENTKTNLESILSYPKDFTCVHQALKGFTTKGVTSVSQIFHSPDLAIRDTFVNASRTLYSSSPRVLSNNSDANLELINTWVAKNTNNKISRLLDSLPSDTRLVLLNAIYLSAKWKTTFDPKKTRMEPFHFKNSVIKVPMMNSKKYPVAHFIDQTLKAKVGQLQLSHNLSLVILVPQNLKHRLEDMEQALSPSVFKAIMEKLEMSKFQPTLLTLPRIKVTTSQDMLSIMEKLEFFDFSYDLNLCGLTEDPDLQVSAMQHQTVLELTETGVEAAAASAISVARTLLVFEVQQPFLFVLWDQQHKFPVFMGRVYDPRA
notes: source: bought: commercial plasma-derived C1-INH, further purified by ion-exchange chromatography

Key:
[1] = target: human bradykinin B2 receptor mutant #1 (found in HAE patients) (human) (UniProt P30411); test: radioligand binding; competition binding with radiolabeled BK (3H-BK); HEK293T cells transiently transfected with human wild-type or mutant B2R
[2] = target: human bradykinin B2 receptor mutant #2 (found in HAE patients) (human) (UniProt P30411); test: as above
[3] = target: T1, commercially available active FXI (UniProt P03951 19-625); test: SDS-PAGE of enzyme/C1-INH complexes; molar equivalent quantities of active enzymes and of C1-INH; conditions: both partners purified
T1 construct: active coagulation factor XI (cleaved into disulfide-linked heavy and light chains); also called active factor XI; source: bought: commercially available
T1 sequence (P03951 19-625): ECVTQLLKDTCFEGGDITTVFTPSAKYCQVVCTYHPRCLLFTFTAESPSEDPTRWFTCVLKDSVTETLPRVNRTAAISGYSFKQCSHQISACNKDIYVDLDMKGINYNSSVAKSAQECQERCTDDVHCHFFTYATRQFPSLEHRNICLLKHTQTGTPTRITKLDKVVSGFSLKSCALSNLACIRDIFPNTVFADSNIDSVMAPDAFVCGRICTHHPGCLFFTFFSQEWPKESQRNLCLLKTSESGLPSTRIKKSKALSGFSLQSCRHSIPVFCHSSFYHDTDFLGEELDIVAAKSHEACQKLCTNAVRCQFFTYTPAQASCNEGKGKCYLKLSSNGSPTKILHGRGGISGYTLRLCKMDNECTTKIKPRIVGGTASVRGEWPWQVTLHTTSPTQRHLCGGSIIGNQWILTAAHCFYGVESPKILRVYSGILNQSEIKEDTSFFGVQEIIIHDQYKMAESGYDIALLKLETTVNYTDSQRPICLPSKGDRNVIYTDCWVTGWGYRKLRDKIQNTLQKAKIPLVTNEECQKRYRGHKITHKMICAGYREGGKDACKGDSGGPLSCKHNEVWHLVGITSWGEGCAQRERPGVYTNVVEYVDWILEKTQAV

Chain of human bradykinin B2 receptor mutant #2 (found in HAE patients) (human) (P30411 whole entry, change not shown): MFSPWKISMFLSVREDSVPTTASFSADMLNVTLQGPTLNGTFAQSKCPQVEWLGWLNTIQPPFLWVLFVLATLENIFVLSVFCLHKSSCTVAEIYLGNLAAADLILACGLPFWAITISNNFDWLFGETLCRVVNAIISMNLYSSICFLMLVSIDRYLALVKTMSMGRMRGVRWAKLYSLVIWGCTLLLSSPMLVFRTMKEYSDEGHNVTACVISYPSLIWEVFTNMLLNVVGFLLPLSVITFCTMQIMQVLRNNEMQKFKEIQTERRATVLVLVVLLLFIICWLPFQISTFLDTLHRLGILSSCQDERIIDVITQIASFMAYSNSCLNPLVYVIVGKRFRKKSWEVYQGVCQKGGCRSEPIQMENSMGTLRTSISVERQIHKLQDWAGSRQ
Chain of human bradykinin B2 receptor mutant #1 (found in HAE patients) (human) (P30411 whole entry, stated change not applied): as the sequence (P30411 whole entry, change not shown) above

Molecule	affinity [1] [nM]	affinity [2] [nM]	binding result [3]
Bradykinin (from UniProt P01042 381-389) (peptide)	0.35	0.46	
B1			binds
